Assays:
Type in all cases: cell-based
[1] = target: T1, cytosolic tail of MCAM, MCAM584-637 (Homo sapiens, UniProt P43121); experiment: Ang II-induced p65 expression in AT1R-CHO cells transfected with cytosolic tail of MCAM; design: corresponds to residues 584-637 of MCAM plus an initiating Methionine; initiating Methionine (N); expressed in transfected cells; host or cells: AT1R-CHO (CHO stably transfected with human AT1R-Rluc8); insert in pCIneo; conditions: Ang II 1 μM, co-transfection (FIG. 3I)
T1 sequence (P43121 with tags, fused parts or gaps): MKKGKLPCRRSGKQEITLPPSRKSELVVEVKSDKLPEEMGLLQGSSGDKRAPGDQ
Method: (§1) Adult retinal pigment epithelial (ARPE) cells were cultured in Dulbecco's modified Eagle's medium (DMEM)/F12 endothelial cell growth supplement (ECGS) supplemented media. Chinese Hamster Ovary (CHO) cells were cultured using F12 media (10% FCS with 2 mM glutamine). Human microvascular endothelial cells (HMEC) were cultured in MCDB 131 medium (10% FCS with 10 mM glutamine, EGF and hydrocortisone).
(§2) 100 ng of AT1R-Rluc8 construct was transfected into CHO cells using Lipofectamine 2000 (Thermo). Stable transfectants were selected using G418. AT1R-CHO were then transiently transfected with the IgSF CAM and/or RAGE constructs using Lipofectamine 2000 (Invitrogen) and incubated for 16h.
(§3) Oligonucleotides were designed and ordered to generate the ALCAM, BCAM and MCAM intracellular (cytosolic) domains. […]
(§4) After 2 hours of exposure to Ang II (1 μM) cells were placed in Trizol, mRNA extracted and cDNA synthesized. Changes in the gene expression of the NFκB subunit, p65 (RelA) or NFκB-activated target genes (e.g ICAM-1) were estimated by quantitative real-time RT-PCR, performed using the TaqMan system based on real-time detection of accumulated fluorescence (ABI Prism 7700, Perkin-Elmer Inc, PE Biosystems, Foster City, Calif., USA). […]

[2] = target: T2, full length murine ALCAM1-583 (Mus musculus, UniProt Q61490); experiment: S100A8/A9-induced PCNA expression in CHO cells transfected with full length murine ALCAM; conditions: S100A8/A9 1 μM 2 h, co-transfection (FIG. 4A)
T2 construct: host or cells: AT1R-CHO (CHO stably transfected with human AT1R-Rluc8), transient transfection; untagged clone in pCMV6
T2 sequence (Q61490 28-583): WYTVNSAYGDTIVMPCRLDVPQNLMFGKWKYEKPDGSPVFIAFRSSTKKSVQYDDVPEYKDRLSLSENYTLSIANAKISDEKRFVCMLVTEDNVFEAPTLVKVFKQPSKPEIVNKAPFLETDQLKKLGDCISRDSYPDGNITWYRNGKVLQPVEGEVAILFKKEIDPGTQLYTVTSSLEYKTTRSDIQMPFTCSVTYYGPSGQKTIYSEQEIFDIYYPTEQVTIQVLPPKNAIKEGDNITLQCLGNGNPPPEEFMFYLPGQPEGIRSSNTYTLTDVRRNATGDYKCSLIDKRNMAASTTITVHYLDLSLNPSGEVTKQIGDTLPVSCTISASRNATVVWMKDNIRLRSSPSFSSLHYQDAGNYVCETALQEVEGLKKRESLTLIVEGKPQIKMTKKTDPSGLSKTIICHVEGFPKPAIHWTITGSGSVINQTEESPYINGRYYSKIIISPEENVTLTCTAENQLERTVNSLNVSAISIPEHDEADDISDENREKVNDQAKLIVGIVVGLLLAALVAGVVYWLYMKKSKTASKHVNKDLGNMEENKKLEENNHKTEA
Method: as §1
Oligonucleotides were designed and ordered to generate the ALCAM, BCAM and MCAM intracellular (cytosolic) domains. These included a 5′ NheI site, Kozak sequence and initiating Methionine and then DNA sequences corresponding to ALCAM residues 552-583, BCAM residues 569-628 and MCAM residues 584-637 respectively (Note that as residue 551 of ALCAM is Methionine, the cytosolic tail of ALCAM effectively corresponded to residues 551-583). The pCIneo parental vector was digested with NheI and NotI restriction enzymes, and the DNA of the fragments of the ALCAM, BCAM and MCAM tails/cytosolic domains were ligated into the digested plasmid. […]
as §4, with “After 2 hours of exposure to Ang II (1 μM) cells were placed in Trizol, mRNA extracted and cDNA synthesized.” left out

[3] = target: T3, cytosolic tail of BCAM, BCAM569-628 (Homo sapiens, UniProt P50895); experiment: Ang II-induced p65 expression in AT1R-CHO cells transfected with cytosolic tail of BCAM; design: corresponds to residues 569-628 of BCAM plus an initiating Methionine; initiating Methionine (N); expressed in transfected cells; host or cells: AT1R-CHO (CHO stably transfected with human AT1R-Rluc8); insert in pCIneo; conditions: Ang II 1 μM, co-transfection (FIG. 3H)
T3 sequence (P50895 with tags, fused parts or gaps): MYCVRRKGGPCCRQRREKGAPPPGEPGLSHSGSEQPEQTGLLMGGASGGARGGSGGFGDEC
Method: as §1, §2, §3, §4

[4] = system: full length chicken EpCAM; experiment: Ang II-induced p65 expression in AT1R-CHO cells transfected with full length chicken EpCAM; conditions: Ang II 1 μM, co-transfection (FIG. 3D)
Method: as §1, §2
After 2 hours of exposure to Ang II (1 μM) cells were placed in Trizol, mRNA extracted and cDNA synthesized. Changes in the gene expression of the NFκB subunit, p65 (RelA) or NFκB-activated target genes (e.g ICAM-1) were estimated by quantitative real-time RT-PCR, performed using the TaqMan system based on real-time detection of accumulated fluorescence (ABI Prism 7700, Perkin-Elmer Inc, PE Biosystems, Foster City, Calif., USA). Gene expression was normalized to 18S mRNA and reported as fold change compared to the level of expression in untreated control mice/cells, which were given an arbitrary value of 1.

[5] = target: T4, full length RAGE1-404 transactivated by C5a receptor 1 (Homo sapiens, UniProt Q15109); experiment: C5a-induced ICAM-1 expression in ARPE cells transfected with C5aR1 and full length RAGE; conditions: C5a 1 μM, co-expression (FIG. 6B)
T4 construct: expressed in transfected cells; host or cells: human ARPE (adult retinal pigment epithelial) cells
T4 sequence (Q15109 23-404): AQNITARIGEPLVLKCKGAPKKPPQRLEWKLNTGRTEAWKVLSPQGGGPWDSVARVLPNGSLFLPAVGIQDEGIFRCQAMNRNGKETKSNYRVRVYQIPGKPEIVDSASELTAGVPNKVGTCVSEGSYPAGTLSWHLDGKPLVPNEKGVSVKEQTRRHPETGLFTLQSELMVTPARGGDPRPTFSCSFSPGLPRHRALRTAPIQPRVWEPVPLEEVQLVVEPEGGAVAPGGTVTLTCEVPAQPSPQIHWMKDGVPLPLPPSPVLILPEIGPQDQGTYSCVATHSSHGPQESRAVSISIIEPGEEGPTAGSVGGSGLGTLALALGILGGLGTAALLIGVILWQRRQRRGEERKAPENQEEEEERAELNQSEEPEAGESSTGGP

Chain of full length chicken EpCAM (as listed by the source): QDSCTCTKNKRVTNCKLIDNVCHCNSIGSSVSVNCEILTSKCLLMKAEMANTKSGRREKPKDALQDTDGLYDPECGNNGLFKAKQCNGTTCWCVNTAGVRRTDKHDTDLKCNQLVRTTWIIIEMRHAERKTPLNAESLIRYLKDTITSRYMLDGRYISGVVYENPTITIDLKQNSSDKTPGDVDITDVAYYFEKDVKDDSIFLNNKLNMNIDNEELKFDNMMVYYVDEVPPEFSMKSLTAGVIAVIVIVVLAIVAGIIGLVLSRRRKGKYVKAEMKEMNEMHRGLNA

## MKHVNKDLGNMEENKKLEENNHK [ALCAM559-580]
[1]
  induction of p65-NFκB expression by Ang II via transactivation of MCAM584-637: prevents induction
[2]
  ligand-dependent signalling (PCNA expression) via murine ALCAM activated by S100A8/A9: inhibited
[3]
  induction of p65-NFκB expression by Ang II via transactivation of BCAM569-628: prevents induction
[4]
  induction of p65-NFκB expression by Ang II via transactivation of full length chicken EpCAM: prevents induction
[5]
  RAGE-dependent induction of ICAM-1 expression following transactivation of RAGE by C5a receptor 1: inhibits
